Consider 91 sequences from the supplement of paper PMC9112550, “Optimization of the antimicrobial peptide Bac7 by deep mutational scanning” (BMC Biology, 2022).

The subject of this series is Escherichia coli TOP10. As to the kind of experiment: shrunken log2 fold change of peptide-encoding DNA abundance (4.5 h post-induction vs induction); higher = less antimicrobial activity (less host growth inhibition). Particulars: time post-induction: 4.5 h; library: site-saturation at positions 5, 18, 19, 20.
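Also: peptides expressed intracellularly from a pBAD plasmid library in pooled LB shake-flask culture, induced with 0.3% L-arabinose, DNA abundance read by NGS, three biological replicates, DESeq2 with apeglm shrinkage.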

Take RRIRVRPPRLPRPRPRPMWDPRP: the “shrunken log2 fold change” value is -0.101. The result for RRIRWRPPRLPRPRPRPPNPPRP reads 0.878; that for RRIRDRPPRLPRPRPRPYLIPRP, -0.387; that for RRIRDRPPRLPRPRPRPRFRPRP, 0.951. Next, RRIRCRPPRLPRPRPRPWISPRP: -0.085; RRIRCRPPRLPRPRPRPVWGPRP: -0.0554; RRIRDRPPRLPRPRPRPWMPPRP: -0.11. As to RRIRPRPPRLPRPRPRPIFVPRP, the “shrunken log2 fold change” value was -0.197. Next, RRIRSRPPRLPRPRPRPWIGPRP: -0.0735; RRIRVRPPRLPRPRPRPYKAPRP: -0.0443; RRIRVRPPRLPRPRPRPASQPRP: 0.128. Turning to RRIRERPPRLPRPRPRPEHIPRP, the “shrunken log2 fold change” value was -0.594. Next, RRIRKRPPRLPRPRPRPNWYPRP: -0.185.

As for RRIRMRPPRLPRPRPRPVVCPRP, the “shrunken log2 fold change” value was 0.125. The result for RRIRFRPPRLPRPRPRPFYVPRP reads -0.417; that for RRIRMRPPRLPRPRPRPGNVPRP, -0.0105. As for RRIRPRPPRLPRPRPRPDHAPRP, the “shrunken log2 fold change” value was found to be 0.218.

For RRIRNRPPRLPRPRPRPKMWPRP, the “shrunken log2 fold change” value amounted to 0.279.

RRIRFRPPRLPRPRPRPDFLPRP: the “shrunken log2 fold change” value was -0.453. The result for RRIRERPPRLPRPRPRPKDMPRP reads 0.00303; that for RRIRWRPPRLPRPRPRPSYNPRP, -0.343. Next, RRIRMRPPRLPRPRPRPGYWPRP: 0.0653; RRIRIRPPRLPRPRPRPLFHPRP: -0.779. On to RRIRCRPPRLPRPRPRPGWLPRP, for which the “shrunken log2 fold change” value is 0.801. The result for RRIRNRPPRLPRPRPRPSIRPRP reads -0.0225. The result for RRIRSRPPRLPRPRPRPGALPRP reads 0.324; that for RRIRARPPRLPRPRPRPPHFPRP, 1.41; that for RRIRPRPPRLPRPRPRPPSTPRP, 0.123. Next, RRIRNRPPRLPRPRPRPPYPPRP: -0.0162; RRIRVRPPRLPRPRPRPTTVPRP: -0.241; RRIRTRPPRLPRPRPRPWEMPRP: -0.0783. As to RRIRRRPPRLPRPRPRPNKFPRP, the “shrunken log2 fold change” value was -0.246. Next, RRIRCRPPRLPRPRPRPRTWPRP: 0.326; RRIRQRPPRLPRPRPRPHNLPRP: -0.183. The result for RRIRRRPPRLPRPRPRPNCHPRP reads -0.0432; that for RRIRVRPPRLPRPRPRPNHTPRP, -0.402. Next, RRIRVRPPRLPRPRPRPTGPPRP: 0.164. Consider RRIRVRPPRLPRPRPRPNWPPRP, for which the “shrunken log2 fold change” value came out at 0.282.

As for RRIRERPPRLPRPRPRPFDRPRP, the “shrunken log2 fold change” value was -0.0163.

For RRIRMRPPRLPRPRPRPTPHPRP, the “shrunken log2 fold change” value turned out to be 1.13. Next, RRIRQRPPRLPRPRPRPMSRPRP: -0.0221; RRIRHRPPRLPRPRPRPESQPRP: -0.173. Next, RRIRTRPPRLPRPRPRPNNEPRP: -0.581; RRIRMRPPRLPRPRPRPWDAPRP: 0.228; RRIRLRPPRLPRPRPRPSLPPRP: -0.0357. Consider RRIRTRPPRLPRPRPRPAFGPRP, for which the “shrunken log2 fold change” value was found to be 0.155.

Regarding RRIRNRPPRLPRPRPRPCWTPRP, the “shrunken log2 fold change” value was -0.0133. RRIRRRPPRLPRPRPRPDFSPRP: the “shrunken log2 fold change” value was -0.18. The result for RRIRQRPPRLPRPRPRPMSLPRP reads -0.13; that for RRIRIRPPRLPRPRPRPLCKPRP, -0.336; that for RRIRIRPPRLPRPRPRPGLSPRP, -0.0218. Next, RRIRSRPPRLPRPRPRPYWTPRP: -0.141; RRIRGRPPRLPRPRPRPNIIPRP: 0.0628. For the sequence RRIRGRPPRLPRPRPRPLTYPRP, the “shrunken log2 fold change” value was determined as 0.279.

On to RRIRQRPPRLPRPRPRPYICPRP, for which the “shrunken log2 fold change” value was -0.102. Next, RRIRPRPPRLPRPRPRPAPDPRP: 0.309; RRIRCRPPRLPRPRPRPVYWPRP: 0.134; RRIRNRPPRLPRPRPRPWLFPRP: 0.0966. The result for RRIRLRPPRLPRPRPRPLLFPRP reads -0.242; that for RRIRVRPPRLPRPRPRPNQHPRP, -0.289. Next, RRIRMRPPRLPRPRPRPRPGPRP: 1.38.

Take RRIRLRPPRLPRPRPRPGVTPRP: the “shrunken log2 fold change” value was determined as 0.0426.

On to RRIRFRPPRLPRPRPRPCEAPRP, for which the “shrunken log2 fold change” value is 0.122. The result for RRIRIRPPRLPRPRPRPFSYPRP reads 3.51. Consider RRIRVRPPRLPRPRPRPAEVPRP, for which the “shrunken log2 fold change” value is 0.00588. Turning to RRIRLRPPRLPRPRPRPACEPRP, the “shrunken log2 fold change” value came out at 0.317. Next, RRIRARPPRLPRPRPRPATTPRP: 0.681; RRIRIRPPRLPRPRPRPVVCPRP: -0.000979; RRIRQRPPRLPRPRPRPNWSPRP: 0.148. As for RRIRNRPPRLPRPRPRPTMTPRP, the “shrunken log2 fold change” value worked out at 0.149.

RRIRHRPPRLPRPRPRPSQKPRP: the “shrunken log2 fold change” value was -0.0338. As for RRIRCRPPRLPRPRPRPPVSPRP, the “shrunken log2 fold change” value worked out at 0.134. On to RRIRTRPPRLPRPRPRPKICPRP, for which the “shrunken log2 fold change” value is -0.292. Next, RRIRPRPPRLPRPRPRPQHRPRP: 0.162; RRIRTRPPRLPRPRPRPHFGPRP: -0.00836. The result for RRIRIRPPRLPRPRPRPNLFPRP reads -0.512; that for RRIRQRPPRLPRPRPRPDVNPRP, -0.142; that for RRIRNRPPRLPRPRPRPWQEPRP, -0.0629. The result for RRIRSRPPRLPRPRPRPRQPPRP reads 0.268; that for RRIRWRPPRLPRPRPRPWGTPRP, -0.0421; that for RRIRIRPPRLPRPRPRPRHAPRP, 0.128. For RRIRKRPPRLPRPRPRPPWKPRP, the “shrunken log2 fold change” value is 0.173. The result for RRIRHRPPRLPRPRPRPDWYPRP reads -0.061; that for RRIRKRPPRLPRPRPRPIPPPRP, 0.385; that for RRIRDRPPRLPRPRPRPDMRPRP, 0.0382. The result for RRIRDRPPRLPRPRPRPPHAPRP reads 0.631. Next, RRIRLRPPRLPRPRPRPYWQPRP: 0.0322. Regarding RRIRSRPPRLPRPRPRPLCRPRP, the “shrunken log2 fold change” value was -0.0794.

For the sequence RRIRFRPPRLPRPRPRPDRTPRP, the “shrunken log2 fold change” value was -0.0783. Next, RRIRIRPPRLPRPRPRPHPMPRP: -0.133; RRIRPRPPRLPRPRPRPCHLPRP: -0.148.
